Assay results published in publication PMC3787792.

Columns and labels:
Experiment in all cases: SEC + other: SDS-PAGE
[1] = biological target: IgG1-Fc variant Q347E (soluble) (human)
[2] = biological target: IgG1-Fc variant K360Q (soluble) (human)
[3] = biological target: IgG1-Fc variant Q438K (soluble) (human)
[4] = biological target: IgG1-Fc variant Q438R (soluble) (human)
[5] = biological target: IgG1-Fc variant T437I (soluble) (human)
[6] = biological target: IgG1-Fc variant S424T (soluble) (human)
[7] = biological target: IgG1-Fc variant N421D (soluble) (human)
[8] = biological target: IgG1-Fc variant S354P (soluble) (human)
[9] = biological target: IgG1-Fc variant K392R (soluble) (human)
[10] = biological target: IgG1-Fc variant K360E (soluble) (human)
[11] = biological target: IgG1-Fc variant S400F (soluble) (human)
[12] = biological target: IgG1-Fc variant Q418L (soluble) (human)

For “IgG1-Fc variant Q347E (soluble) (domain or fragment)”, the stoichiometry N [1] was 2.

With “IgG1-Fc variant K360Q (soluble) (domain or fragment)” the stoichiometry N [2] was 2.

With “IgG1-Fc variant Q438K (soluble) (domain or fragment)” the stoichiometry N [3] was 2.

For “IgG1-Fc variant Q438R (soluble) (domain or fragment)”, the stoichiometry N [4] was 2.

Substance “IgG1-Fc variant T437I (soluble) (domain or fragment)” has a stoichiometry N [5] of 2.

For “IgG1-Fc variant S424T (soluble) (domain or fragment)”, the stoichiometry N [6] was 2.

Substance “IgG1-Fc variant N421D (soluble) (domain or fragment)” has a stoichiometry N [7] of 2.

Work on “IgG1-Fc variant S354P (soluble) (domain or fragment)” yielded a stoichiometry N [8] of 2.

In the case of “IgG1-Fc variant K392R (soluble) (domain or fragment)”, the stoichiometry N [9] is reported as 2.

“IgG1-Fc variant K360E (soluble) (domain or fragment)” showed a stoichiometry N [10] of 2.

In the case of “IgG1-Fc variant S400F (soluble) (domain or fragment)”, the stoichiometry N [11] is reported as 2.

“IgG1-Fc variant Q418L (soluble) (domain or fragment)” gave a stoichiometry N [12] of 2.
